Test results from US6060513A, “Compounds and compositions for delivering active agents” (Emisphere Technologies, Inc., priority 1997, dated 2000).

Experiment: In Vivo Interferon Delivery (ELISA for human interferon)
Set-up: species or system Rats
Conditions: 1 mg/kg interferon, no carrier

interferon
Mean peak serum interferon concentration (IC): 79±100
Mean peak serum interferon concentration (PO): 1951±1857
